Changes are numbered by the printed parent chain. Like-named read-outs stand apart in the source and are kept apart here.

In assay [1] the target is T1, human GPRC5D (human, UniProt Q9NZD1 1-345).
T1 construct: whole, on cells; also called membrane surface GPRC5D
As to the kind of experiment: FACS, MM.1R cells. The procedure:
(§1) To test the capacity of the GPRC5D/CD3 bispecific antibodies of the present disclosure to bind to GPRC5D, a flow cytometry assay was used in this test example to measure the capacity of the GPRC5D/CD3 bispecific antibodies to bind to the human multiple myeloma cell line MM.1R (ATCC® CRL-2975), which expresses GPRC5D, and to a stably transfected cell strain CHOK1-cynoGPRC5D, which expresses cynomolgus monkey GPRC5D. The specific procedure was as follows: The cells described above were cultured in complete culture medium containing 10% FBS, incubated in a 37° C., 5% CO₂ incubator for 2 days, and added to a cell plate at 1×10⁵ cells/well. The plate was centrifuged at 300 g for 5 min and washed once with 1% BSA. The antibodies were serially diluted to 8 concentrations and added to the cell plate at 100 μL/well. The plate was incubated at 4° C. for 1 h and washed once with 1% BSA. […] The plate was washed three times with 1% BSA, PBS was added at 100 μL/well, and plate reading was performed.
For orientation: In flow cytometry, cells or beads pass a laser one at a time.

Assay [2] deals with T2, cynomolgus monkey GPRC5D (cynomolgus monkey).
T2 construct: whole, on cells; also called CynoGPRC5D; cynoGPRC5D
As to the kind of experiment: FACS, CHOK1-cynoGPRC5D cells. The procedure:
as §1

Assay [3] addresses T1, human GPRC5D. As to the kind of experiment: FACS, MM.1R cells. The procedure:
as §1
The source holds these as a separate data set.

The target of assay [4] is T2, cynomolgus monkey GPRC5D. As to the kind of experiment: FACS, CHOK1-cynoGPRC5D cells. The procedure: as §1
This is another data set of the same source.

T1 sequence (Q9NZD1 whole entry): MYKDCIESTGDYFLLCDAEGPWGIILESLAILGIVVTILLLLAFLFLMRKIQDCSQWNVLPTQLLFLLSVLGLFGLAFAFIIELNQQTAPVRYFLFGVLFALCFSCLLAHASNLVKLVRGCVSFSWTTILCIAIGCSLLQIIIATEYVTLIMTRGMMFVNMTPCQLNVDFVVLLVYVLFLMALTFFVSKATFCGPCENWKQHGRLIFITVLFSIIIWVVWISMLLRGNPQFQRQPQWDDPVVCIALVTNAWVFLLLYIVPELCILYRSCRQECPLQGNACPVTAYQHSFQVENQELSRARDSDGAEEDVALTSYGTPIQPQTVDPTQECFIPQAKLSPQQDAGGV

B1: Chi-1 (antibody, human IgG1, kappa, L234A L235A, V domains shown)
VH: EVQLVESGGGLVKPGGSLKLSCAASGFTFSDYGMHWVRQAPEKGLEWVAFISSGSSTIYYADTVKGRFTISRDNAKNTLFLQMTSLRSEDTAIYYCTRLGPNWYFDVWGTGTTVTVSS
VL: DVVMTQTPLSLSVSLGDQASISCRSSQSLVHSNGNTYLYWYLQKPGQSPKLLIYKVSNRFSGVPDRFSGSGSGTDFTLKISRVEAEDLGVYFCSQSTHVPPLTFGAGTKLELKR
What is called EC50 is the midpoint of the concentration-response curve. In the assay with human GPRC5D [1], B1 yielded an EC50 of 1.43 nM and a Max of 5210. Besides, in the assay with cynomolgus monkey GPRC5D [2], the response was half-maximal at 1.2 nM (EC50) and the Max is 7880.

B2: Chi-24 (antibody, human IgG1, kappa, L234A L235A, V domains shown)
VH: QVQLQQSDAELVKPGGSVKISCKVSGYTFTDYPIHWMKQRPEQGLEWMGYVFPRDGSTKYNEKFRVKATWTADKSSSTVYMQLNSLTSDDSAVYFCSRELTAYWGQGTTLRVSS
VL: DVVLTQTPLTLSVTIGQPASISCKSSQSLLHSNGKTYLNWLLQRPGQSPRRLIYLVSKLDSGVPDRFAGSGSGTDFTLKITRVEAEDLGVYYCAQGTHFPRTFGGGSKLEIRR
In the case of B2, in the assay with human GPRC5D [1], the EC50 came out at 2.81 nM and the Max worked out at 5000. In the assay with cynomolgus monkey GPRC5D [2], this molecule yielded a concentration for a half-maximal effect (EC50) of 3.96 nM and a Max of 9630.

B3: Chi-30 (antibody, human IgG1, kappa, L234A L235A, V domains shown)
VH: EVQLQQSGPELVKPGGSMKISCKASGYSFTGYTMNWVKQSHGKNPEWIGLINPYNGGTRNNQKFKDKATLTVDKSSSTAYMELLSLTSEDSAVYYCTRWGLRLAMDYWGQGTSVTVSS
VL: DIVMTQSQKFMSTSVGDRVSVTCKASQNVGSNVAWYQQKPGQSPKALIYSASYRYSGVPDRFTGSGSGTDFTLTISNVQSEDLAEYFCHQYNSYPPTFGAGTKLALKR
B3: in the assay with human GPRC5D [1], the 50% effective concentration (EC50) was found to be 0.46 nM and the Max was 2100. In the assay with cynomolgus monkey GPRC5D [2], this molecule showed an EC50 of 1.57 nM and a Max of 7940.

B4: F11-19 (bispecific antibody)
heavy: not shown
light: DIVMTQSQKFMSTSVGDRVSVTCKASQNVGSNVAWYQQKPGQSPKALIYSASYRYSGVPDRFTGSGSGTDFTLTISNVQSEDLAEYFCHQYNSYPPTFGAGTKLALKRTVAAPSVFIFPPSDEQLKSGTASVVCLLNNFYPREAKVQWKVDNALQSGNSQESVTEQDSKDSTYSLSSTLTLSKADYEKHKVYACEVTHQGLSSPVTKSFNRGEC
notes: formula 11 with Chi-30 variable regions
As for B4, in the assay with human GPRC5D [1], the concentration for a half-maximal effect (EC50) came out at 1.32 nM and the Max stood at 1140. In addition, in the assay with cynomolgus monkey GPRC5D [2], the EC50 was 2.71 nM and the Max was 9790.

B5: Chi-45 (antibody, human IgG1, kappa, L234A L235A, V domains shown)
VH: EVKLVESGGGLVQPGDFLSLSCAASGFTFTDYYLSWVRQPPGKALEWLAFIRNRAKGYTTEYSASVKGRFTISRDNSQSILYLQMNVLRAEDSATYYCARMGGKGWHFDVWGTGTTVTVSS
VL: DVLMTQSPLSLPVSLGDQASISCRSSQSIVHSNGNTYLEWYLQKPGQSPKLLIYKVSNRFSGVPDRFFGSGSGTDFTLKINRVEAEDLGVYYCFQGSHVPFTFGGGTKLEIKR
As to B5, in the assay with human GPRC5D [1], a half-maximal effect (EC50) was put at 1.64 nM and the Max was found to be 1250. In the assay with cynomolgus monkey GPRC5D [2], this molecule gave an EC50 of 1.91 nM and a Max of 14600.

B6: JNJ-64407564 (bispecific antibody, human IgG4 S228P, kappa, lambda, F234A L235A)
heavy 1: not shown
light 1: DIQMTQSPSSLSASVGDRVTITCKASQNVATHVGWYQQKPGKAPKRLIYSASYRYSGVPSRFSGSGSGTEFTLTISNLQPEDFATYYCQQYNRYPYTFGQGTKLEIKRTVAAPSVFIFPPSDEQLKSGTASVVCLLNNFYPREAKVQWKVDNALQSGNSQESVTEQDSKDSTYSLSSTLTLSKADYEKHKVYACEVTHQGLSSPVTKSFNRGEC
heavy 2: EVQLVESGGGLVQPGGSLRLSCAASGFTFNTYAMNWVRQAPGKGLEWVARIRSKYNNYATYYAASVKGRFTISRDDSKNSLYLQMNSLKTEDTAVYYCARHGNFGNSYVSWFAYWGQGTLVTVSSASTKGPSVFPLAPCSRSTSESTAALGCLVKDYFPEPVTVSWNSGALTSGVHTFPAVLQSSGLYSLSSVVTVPSSSLGTKTYTCNVDHKPSNTKVDKRVESKYGPPCPPCPAPEAAGGPSVFLFPPKPKDTLMISRTPEVTCVVVDVSQEDPEVQFNWYVDGVEVHNAKTKPREEQFNSTYRVVSVLTVLHQDWLNGKEYKCKVSNKGLPSSIEKTISKAKGQPREPQVYTLPPSQEEMTKNQVSLTCLVKGFYPSDIAVEWESNGQPENNYKTTPPVLDSDGSFLLYSKLTVDKSRWQEGNVFSCSVMHEALHNHYTQKSLSLSLGK
light 2: QTVVTQEPSLTVSPGGTVTLTCRSSTGAVTTSNYANWVQQKPGQAPRGLIGGTNKRAPGTPARFSGSLLGGKAALTLSGVQPEDEAEYYCALWYSNLWVFGGGTKLTVLGQPKAAPSVTLFPPSSEELQANKATLVCLISDFYPGAVTVAWKADSSPVKAGVETTTPSKQSNNKYAASSYLSLTPEQWKSHRSYSCQVTHEGSTVEKTVAPTECS
notes: anti-GPRC5D arm and anti-CD3E arm; also called positive control molecule
In the assay with cynomolgus monkey GPRC5D [2], B6 had a 50% effective concentration (EC50) of 0.06 nM and a Max of 0.26.

B7: F4-1 (bispecific antibody)
heavy 1: not shown
light 1: not shown
heavy 2: EVQLVESGGGLVQPGGSLRLSCAASGFTFTDYYLSWVRQAPGKGLEWVAFIRNRAKGYTTEYSASVKGRFTISRDNAKNSLYLQMNSLRAEDTAVYYCARMGGKGWHFDVWGQGTTVTVSSASTKGPSVFPLAPSSKSTSGGTAALGCLVKDYFPEPVTVSWNSGALTSGVHTFPAVLQSSGLYSLSSVVTVPSSSLGTQTYICNVNHKPSNTKVDKKVEPKSCDKTHTCPPCPAPEAAGGPSVFLFPPKPKDTLMISRTPEVTCVVVDVSHEDPEVKFNWYVDGVEVHNAKTKPREEQYNSTYRVVSVLTVLHQDWLNGKEYKCKVSNKALPAPIEKTISKAKGQPREPQVCTLPPSRDELTKNQVSLSCAVKGFYPSDIAVEWESNGQPENNYKTTPPVLDSDGSFFLVSKLTVDKSRWQQGNVFSCSVMHEALHNHYTQKSLSLSPGK
light 2: DVVMTQSPLSLPVTPGEPASISCRSSQSIVHSNRNTYLEWYLQKPGQSPKLLIYKVSNRFSGVPDRFFGSGSGTDFTLKINRVEAEDVGVYYCFQGSHVPFTFGGGTKVEIKRTVAAPSVFIFPPSDEQLKSGTASVVCLLNNFYPREAKVQWKVDNALQSGNSQESVTEQDSKDSTYSLSSTLTLSKADYEKHKVYACEVTHQGLSSPVTKSFNRGEC
notes: formula 4
Consider B7, for which the results for the EC50 in the assay with human GPRC5D [1] and in the assay with cynomolgus monkey GPRC5D [2] were 16.9 nM and 3.28 nM, respectively. The Max with human GPRC5D [1] is 13800; with cynomolgus monkey GPRC5D [2] it was 76600.

B8: F2-4 (bispecific antibody)
heavy 1: not shown
light 1: B7 light 2
heavy 2: not shown
light 2: not shown
notes: formula 2
Take B8: the values for the EC50 in the assay with human GPRC5D [3] and with cynomolgus monkey GPRC5D [4] were 7.56 nM and 3.95 nM, respectively.

B9: F4-9 (bispecific antibody)
heavy 1: not shown
light 1: not shown
heavy 2: EVKLVESGGGLVQPGDFLSLSCAASGFTFTDYYLSWVRQPPGKALEWLAFIRNRAKGYTTEYSASVKGRFTISRDNSQSILYLQMNVLRAEDSATYYCARMGGKGWHFDVWGTGTTVTVSSASTKGPSVFPLAPSSKSTSGGTAALGCLVKDYFPEPVTVSWNSGALTSGVHTFPAVLQSSGLYSLSSVVTVPSSSLGTQTYICNVNHKPSNTKVDKKVEPKSCDKTHTCPPCPAPEAAGGPSVFLFPPKPKDTLMISRTPEVTCVVVDVSHEDPEVKFNWYVDGVEVHNAKTKPREEQYNSTYRVVSVLTVLHQDWLNGKEYKCKVSNKALPAPIEKTISKAKGQPREPQVCTLPPSRDELTKNQVSLSCAVKGFYPSDIAVEWESNGQPENNYKTTPPVLDSDGSFFLVSKLTVDKSRWQQGNVFSCSVMHEALHNHYTQKSLSLSPGK
light 2: B7 light 2 with V3L, T14S, P15L, E17D, P18Q, R34G, V88L, V109L
notes: formula 4 with Chi-45 variable regions
Consider B9, for which, in the assay with human GPRC5D [1], the midpoint of the response, the EC50, lay at 19.2 nM and the Max was determined as 13200. Moreover, in the assay with cynomolgus monkey GPRC5D [2], the concentration for a half-maximal effect (EC50) is 4.01 nM and the Max turned out to be 83700.

B10: F4-3 (bispecific antibody)
heavy 1: not shown
light 1: not shown
heavy 2: B7 heavy 2 with K78Q
light 2: B7 light 2
notes: formula 4
Turning to B10, in the assay with human GPRC5D [1], a half-maximal effect (EC50) was put at 16.1 nM and the Max amounted to 13800. In the assay with cynomolgus monkey GPRC5D [2], this molecule gave an EC50 of 3.83 nM and a Max of 76100.

B11: F4-2 (bispecific antibody)
heavy 1: not shown
light 1: not shown
heavy 2: B7 heavy 2 with A77S
light 2: B7 light 2
notes: formula 4
With B11, the results for the EC50 with human GPRC5D [1] and with cynomolgus monkey GPRC5D [2] were 15.8 nM and 3.45 nM, respectively. Also, the Max amounted to 13700 with human GPRC5D [1] and 75200 in the assay with cynomolgus monkey GPRC5D [2].

B12: F11-7 (bispecific antibody)
heavy: not shown
light: DVVLTQSPLSLPVTLGQPASISCKSSQSLLHSNGKTYLNWLLQRPGQSPRRLIYLVSKLDSGVPDRFSGSGSGTDFTLKISRVEAEDVGVYYCAQGTHFPRTFGGGTKVEIKRTVAAPSVFIFPPSDEQLKSGTASVVCLLNNFYPREAKVQWKVDNALQSGNSQESVTEQDSKDSTYSLSSTLTLSKADYEKHKVYACEVTHQGLSSPVTKSFNRGEC
notes: formula 11
B12: the concentration giving a half-maximal response (EC50) with human GPRC5D [1] came out at 1.89 nM; with human GPRC5D [3], 1.89 nM; in the assay with cynomolgus monkey GPRC5D [4] it was 0.76 nM. In the assay with human GPRC5D [1], this molecule returned a Max of 2020.

B13: F11-18 (bispecific antibody)
heavy: not shown
light: B12 light with S7T, S10T, P12S, L15I, S68A, S81T, V88L, T107S, V109L, K112R
notes: formula 11 with Chi-24 variable regions
For the molecule B13, in the assay with human GPRC5D [1], the midpoint of the response, the EC50, lay at 1.57 nM and the Max was 1300.

B14: F11-8 (bispecific antibody)
heavy: not shown
light: B12 light with N33S
notes: formula 11
For the molecule B14, the EC50 with human GPRC5D [1] worked out at 2 nM; in the assay with human GPRC5D [3] it was 2 nM; with cynomolgus monkey GPRC5D [4] it was 0.36 nM. Moreover, the Max with human GPRC5D [1] is 1910.

B15: F11-17 (bispecific antibody)
heavy: not shown
light: DVVMTQTPLSLSVSLGDQASISCRSSQSLVHSNGNTYLYWYLQKPGQSPKLLIYKVSNRFSGVPDRFSGSGSGTDFTLKISRVEAEDLGVYFCSQSTHVPPLTFGAGTKLELKRTVAAPSVFIFPPSDEQLKSGTASVVCLLNNFYPREAKVQWKVDNALQSGNSQESVTEQDSKDSTYSLSSTLTLSKADYEKHKVYACEVTHQGLSSPVTKSFNRGEC
notes: formula 11 with Chi-1 variable regions
B15: the concentration for a half-maximal effect (EC50) with human GPRC5D [1] is 0.31 nM; with cynomolgus monkey GPRC5D [2], 0.35 nM. Also, the Max was 1.82 with human GPRC5D [1] and 0.98 with cynomolgus monkey GPRC5D [2].

The values are drawn from patent US20250215083A1 (JIANGSU HENGRUI PHARMACEUTICALS, published 2025).
